Measurements from the supplement of paper PMC5998384.

Assays:
HeLa Kyoto [1] = test: solubility in G1/S (NP-40 vs SDS abundance) (log2 ratio); higher = more soluble; conditions: cell cycle stage: G1/S
HeLa Kyoto [2] = test: melting temperature (median over replicates), in situ; higher = more thermally stable
HeLa Kyoto [3] = test: thermal stability score vs G1/S (z-score of summed log2 fold changes over temperatures); higher = more thermally stable than in G1/S
HeLa Kyoto [4] = test: solubility change mitosis vs G1/S (difference of NP-40 vs SDS log2 ratios) (log2 ratio difference); higher = more soluble in mitosis
[5] = cell cycle stage: early G1 (4.5 h after nocodazole release)
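Wherever melting temperature (median over replicates), in situ is given: HeLa Kyoto cells synchronized by double thymidine or nocodazole block, proteins quantified by TMT10plex mass spectrometry, three independent biological replicates.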
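Wherever solubility change mitosis vs G1/S (difference of NP-40 vs SDS log2 ratios) is given: synchronized HeLa Kyoto cells (double thymidine block for G1/S, nocodazole release for mitosis), protein amounts in NP-40 versus SDS lysates quantified by mass spectrometry, three biological replicates.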
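Wherever solubility in G1/S (NP-40 vs SDS abundance) is given: HeLa Kyoto cells arrested at G1/S by double thymidine block, proteins quantified by TMT10plex mass spectrometry in mild NP-40 versus SDS extracts, three biological replicates.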
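Wherever thermal stability score vs G1/S (z-score of summed log2 fold changes over temperatures) is given: synchronized HeLa Kyoto cells, proteins quantified by TMT10plex mass spectrometry, three biological replicates, mitosis taken 0.5 h after nocodazole release, G1/S directly after double thymidine block.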

Sequence	solubility in G1/S (log2) (HeLa Kyoto [1])	melting temperature (HeLa Kyoto [2]; cell cycle stage: G1/S) [°C]	melting temperature (HeLa Kyoto [2]; cell cycle stage: mitosis) [°C]	thermal stability score (HeLa Kyoto [3]; [5])	thermal stability score (HeLa Kyoto [3]; cell cycle stage: mitosis)	solubility change mitosis (log2) (HeLa Kyoto [4])
MATYTCITCRVAFRDADMQRAHYKTDWHRYNLRRKVASMAPVTAEGFQERVRAQRAVAEEESKGSATYCTVCSKKFASFNAYENHLKSRRHVELEKKAVQAVNRKVEMMNEKNLEKGLGVDSVDKDAMNAAIQQAIKAQPSMSPKKAPPAPAKEARNVVAVGTGGRGTHDRDPSEKPPRLQWFEQQAKKLAKQQEEDSEEEEEDLDGDDWEDIDSDEELECEDTEAMDDVVEQDAEEEEAEEGPPLGAIPITDCLFCSHHSSSLMKNVAHMTKDHSFFIPDIEYLSDIKGLIKYLGEKVGVGKICLWCNEKGKSFYSTEAVQAHMNDKSHCKLFTDGDAALEFADFYDFRSSYPDHKEGEDPNKAEELPSEKNLEYDDETMELILPSGARVGHRSLMRYYKQRFGLSRAVAVAKNRKAVGRVLQQYRALGWTGSTGAALMRERDMQYVQRMKSKWMLKTGMKNNATKQMHFRVQVRF [ZNF622]	-0.924	53.3	53.7	-2.54	-0.435	0.0193
MAVAAAAAAAGPAGAGGGRAQRSGLLEVLVRDRWHKVLVNLSEDALVLSSEEGAAAYNGIGTATNGSFCRGAGAGHPGAGGAQPPDSPAGVRTAFTDLPEQVPESISNQKRGVKVLKQELGGLGISIKGGKENKMPILISKIFKGLAADQTQALYVGDAILSVNGADLRDATHDEAVQALKRAGKEVLLEVKYMREATPYVKKGSPVSEIGWETPPPESPRLGGSTSDPPSSQSFSFHRDRKSIPLKMCYVTRSMALADPENRQLEIHSPDAKHTVILRSKDSATAQAWFSAIHSNVNDLLTRVIAEVREQLGKTGIAGSREIRHLGWLAEKVPGESKKQWKPALVVLTEKDLLIYDSMPRRKEAWFSPVHTYPLLATRLVHSGPGKGSPQAGVDLSFATRTGTRQGIETHLFRAETSRDLSHWTRSIVQGCHNSAELIAEISTACTYKNQECRLTIHYENGFSITTEPQEGAFPKTIIQSPYEKLKMSSDDGIRMLYLDFGGKDGEIQLDLHSCPKPIVFIIHSFLSAKITRLGLVA [SNTB1]	0.0289	49.9	50.2	0.836	0.333	0.0627
MAVAGAVSGEPLVHWCTQQLRKTFGLDVSEEIIQYVLSIESAEEIREYVTDLLQGNEGKKGQFIEELITKWQKNDQELISDPLQQCFKKDEILDGQKSGDHLKRGRKKGRNRQEVPAFTEPDTTAEVKTPFDLAKAQENSNSVKKKTKFVNLYTREGQDRLAVLLPGRHPCDCLGQKHKLINNCLICGRIVCEQEGSGPCLFCGTLVCTHEEQDILQRDSNKSQKLLKKLMSGVENSGKVDISTKDLLPHQELRIKSGLEKAIKHKDKLLEFDRTSIRRTQVIDDESDYFASDSNQWLSKLERETLQKREEELRELRHASRLSKKVTIDFAGRKILEEENSLAEYHSRLDETIQAIANGTLNQPLTKLDRSSEEPLGVLVNPNMYQSPPQWVDHTGAASQKKAFRSSGFGLEFNSFQHQLRIQDQEFQEGFDGGWCLSVHQPWASLLVRGIKRVEGRSWYTPHRGRLWIAATAKKPSPQEVSELQATYRLLRGKDVEFPNDYPSGCLLGCVDLIDCLSQKQFKEQFPDISQESDSPFVFICKNPQEMVVKFPIKGNPKIWKLDSKIHQGAKKGLMKQNKAV [TRIP4]	-0.111	50.6	49.4	1.04	0.759	-0.0219
MAVATAAAVLAALGGALWLAARRFVGPRVQRLRRGGDPGLMHGKTVLITGANSGLGRATAAELLRLGARVIMGCRDRARAEEAAGQLRRELRQAAECGPEPGVSGVGELIVRELDLASLRSVRAFCQEMLQEEPRLDVLINNAGIFQCPYMKTEDGFEMQFGVNHLGHFLLTNLLLGLLKSSAPSRIVVVSSKLYKYGDINFDDLNSEQSYNKSFCYSRSKLANILFTRELARRLEGTNVTVNVLHPGIVRTNLGRHIHIPLLVKPLFNLVSWAFFKTPVEGAQTSIYLASSPEVEGVSGRYFGDCKEEELLPKAMDESVARKLWDISEVMVGLLK [RDH14]	-0.158	51.8	51.6	0.98	0.294	0.0299
MAVESRVTQEEIKKEPEKPIDREKTCPLLLRVFTTNNGRHHRMDEFSRGNVPSSELQIYTWMDATLKELTSLVKEVYPEARKKGTHFNFAIVFTDVKRPGYRVKEIGSTMSGRKGTDDSMTLQSQKFQIGDYLDIAITPPNRAPPPSGRMRPY [SAP18]	-0.67	47.5	49.7	0.467	3.26	0.699
MAVETLSPDWEFDRVDDGSQKIHAEVQLKNYGKFLEEYTSQLRRIEDALDDSIGDVWDFNLDPIALKLLPYEQSSLLELIKTENKVLNKVITVYAALCCEIKKLKYEAETKFYNGLLFYGEGATDASMVEGDCQIQMGRFISFLQELSCFVTRCYEVVMNVVHQLAALYISNKIAPKIIETTGVHFQTMYEHLGELLTVLLTLDEIIDNHITLKDHWTMYKRLLKSVHHNPSKFGIQEEKLKPFEKFLLKLEGQLLDGMIFQACIEQQFDSLNGGVSVSKNSTFAEEFAHSIRSIFANVEAKLGEPSEIDQRDKYVGICGLFVLHFQIFRTIDKKFYKSLLDICKKVPAITLTANIIWFPDNFLIQKIPAAAKLLDRKSLQAIKIHRDTFLQQKAQSLTKDVQSYYVFVSSWMMKMESILSKEQRMDKFAEDLTNRCNVFIQGFLYAYSISTIIKTTMNLYMSMQKPMTKTSVKALCRLVELLKAIEHMFYRRSMVVADSVSHITQHLQHQALHSISVAKKRVISDKKYSEQRLDVLSALVLAENTLNGPSTKQRRLIVSLALSVGTQMKTFKDEELFPLQVVMKKLDLISELRERVQTQCDCCFLYWHRAVFPIYLDDVYENAVDAARLHYMFSALRDCVPAMMHARHLESYEILLDCYDKEIMEILNEHLLDKLCKEIEKDLRLSVHTHLKLDDRNPFKVGMKDLALFFSLNPIRFFNRFIDIRAYVTHYLDKTFYNLTTVALHDWATYSEMRNLATQRYGLVMTEAHLPSQTLEQGLDVLEIMRNIHIFVSRYLYNLNNQIFIERTSNNKHLNTINIRHIANSIRTHGTGIMNTTVNFTYQFLKKKFYIFSQFMYDEHIKSRLIKDIRFFREIKDQNDHKYPFDRAEKFNRGIRKLGVTPEGQSYLDQFRQLISQIGNAMGYVRMIRSGGLHCSSNAIRFVPDLEDIVNFEELVKEEGLAEETLKAARHLDSVLSDHTRNSAEGTEYFKMLVDVFAPEFRRPKNIHLRNFYIIVPPLTLNFVEHSISCKEKLNKKNKIGAAFTDDGFAMGVAYILKLLDQYREFDSLHWFQSVREKYLKEIRAVAKQQNVQSASQDEKLLQTMNLTQKRLDVYLQEFELLYFSLSSARIFFRADKTAAEENQEKKEKEEETKTSNGDLSDSTVSADPVVK [KIAA1033]	-0.393	49.7	49.7	0.475	0.963	-0.0953
MAVFRSGLLVLTTPLASLAPRLASILTSAARLVNHTLYVHLQPGMSLEGPAQPQSSPVQATFEVLDFITHLYAGADVHRHLDVRILLTNIRTKSTFLPPLPTSVQNLAHPPEVVLTDFQTLDGSQYNPVKQQLVRYATSCYSCCPRLASVLLYSDYGIGEVPVEPLDVPLPSTIRPASPVAGSPKQPVRGYYRGAVGGTFDRLHNAHKVLLSVACILAQEQLVVGVADKDLLKSKLLPELLQPYTERVEHLSEFLVDIKPSLTFDVIPLLDPYGPAGSDPSLEFLVVSEETYRGGMAINRFRLENDLEELALYQIQLLKDLRHTENEEDKVSSSSFRQRMLGNLLRPPYERPELPTCLYVIGLTGISGSGKSSIAQRLKGLGAFVIDSDHLGHRAYAPGGPAYQPVVEAFGTDILHKDGIINRKVLGSRVFGNKKQLKILTDIMWPIIAKLAREEMDRAVAEGKRVCVIDAAVLLEAGWQNLVHEVWTAVIPETEAVRRIVERDGLSEAAAQSRLQSQMSGQQLVEQSHVVLSTLWEPHITQRQVEKAWALLQKRIPKTHQALD [COASY]	0.236	48.1	48.8	2.77	4.34	-0.14
MAVLAALLRSGARSRSPLLRRLVQEIRYVERSYVSKPTLKEVVIVSATRTPIGSFLGSLSLLPATKLGSIAIQGAIEKAGIPKEEVKEAYMGNVLQGGEGQAPTRQAVLGAGLPISTPCTTINKVCASGMKAIMMASQSLMCGHQDVMVAGGMESMSNVPYVMNRGSTPYGGVKLEDLIVKDGLTDVYNKIHMGSCAENTAKKLNIARNEQDAYAINSYTRSKAAWEAGKFGNEVIPVTVTVKGQPDVVVKEDEEYKRVDFSKVPKLKTVFQKENGTVTAANASTLNDGAAALVLMTADAAKRLNVTPLARIVAFADAAVEPIDFPIAPVYAASMVLKDVGLKKEDIAMWEVNEAFSLVVLANIKMLEIDPQKVNINGGAVSLGHPIGMSGARIVGHLTHALKQGEYGLASICNGGGGASAMLIQKL [ACAT1]	0.493	54.5	54.8	-1.2	0.833	-0.0153
MAVPGDAARVRDKPVHSGVSQAPTAGRDCHHRADPASPRDSGCRGCWGDLVLQPLRSSRKLSSALCAGSLSFLLALLVRLVRGEVGCDLEQCKEAAAAEEEEAAPGAEGGVFPGPRGGAPGGGARLSPWLQPSALLFSLLCAFFWMGLYLLRAGVRLPLAVALLAACCGGEALVQIGLGVGEDHLLSLPAAGVVLSCLAAATWLVLRLRLGVLMIALTSAVRTVSLISLERFKVAWRPYLAYLAGVLGILLARYVEQILPQSAEAAPREHLGSQLIAGTKEDIPVFKRRRRSSSVVSAEMSGCSSKSHRRTSLPCIPREQLMGHSEWDHKRGPRGSQSSGTSITVDIAVMGEAHGLITDLLADPSLPPNVCTSLRAVSNLLSTQLTFQAIHKPRVNPVTSLSENYTCSDSEESSEKDKLAIPKRLRRSLPPGLLRRVSSTWTTTTSATGLPTLEPAPVRRDRSTSIKLQEAPSSSPDSWNNPVMMTLTKSRSFTSSYAISAANHVKAKKQSRPGALAKISPLSSPCSSPLQGTPASSLVSKISAVQFPESADTTAKQSLGSHRALTYTQSAPDLSPQILTPPVICSSCGRPYSQGNPADEPLERSGVATRTPSRTDDTAQVTSDYETNNNSDSSDIVQNEDETECLREPLRKASACSTYAPETMMFLDKPILAPEPLVMDNLDSIMEQLNTWNFPIFDLVENIGRKCGRILSQVSYRLFEDMGLFEAFKIPIREFMNYFHALEIGYRDIPYHNRIHATDVLHAVWYLTTQPIPGLSTVINDHGSTSDSDSDSGFTHGHMGYVFSKTYNVTDDKYGCLSGNIPALELMALYVAAAMHDYDHPGRTNAFLVATSAPQAVLYNDRSVLENHHAAAAWNLFMSRPEYNFLINLDHVEFKHFRFLVIEAILATDLKKHFDFVAKFNGKVNDDVGIDWTNENDRLLVCQMCIKLADINGPAKCKELHLQWTDGIVNEFYEQGDEEASLGLPISPFMDRSAPQLANLQESFISHIVGPLCNSYDSAGLMPGKWVEDSDESGDTDDPEEEEEEAPAPNEEETCENNESPKKKTFKRRKIYCQITQHLLQNHKMWKKVIEEEQRLAGIENQSLDQTPQSHSSEQIQAIKEEEEEKGKPRGEEIPTQKPDQ [PDE3A]	0.0669	51.8	49.6	-2.5	-4.37	-0.179
MAVTITLKTLQQQTFKIRMEPDETVKVLKEKIEAEKGRDAFPVAGQKLIYAGKILSDDVPIRDYRIDEKNFVVVMVTKTKAGQGTSAPPEASPTAAPESSTSFPPAPTSGMSHPPPAAREDKSPSEESAPTTSPESVSGSVPSSGSSGREEDAASTLVTGSEYETMLTEIMSMGYERERVVAALRASYNNPHRAVEYLLTGIPGSPEPEHGSVQESQVSEQPATEAAGENPLEFLRDQPQFQNMRQVIQQNPALLPALLQQLGQENPQLLQQISRHQEQFIQMLNEPPGELADISDVEGEVGAIGEEAPQMNYIQVTPQEKEAIERLKALGFPESLVIQAYFACEKNENLAANFLLSQNFDDE [RAD23A]	0.0728	56.3	55.5	-1.83	-1.48	0.0994
